Data on two molecules can be found in patent US9969795.

The target of this experiment is recombinant influenza HA3-protein (from H3N2, Wyoming, March 2003, Sino Biological Inc.) (Influenza virus H3N2 (Wyoming, March 2003)). In words: SPR imaging (IBIS MX96), antibody captured on anti-human-IgG chip, HA3 1 ug/ml; global 1:1 fit in Scrubber2.

B1: AT10_004 mutant C (antibody, V domains shown)
VH: QVQLVQSGAEVRKPGASVKVSCKASGYTFTRHGISWVRQAPGQGLEWMGWISAYTGDTDYAQKFQGRVTMTTDTSTNTAYMELRSLRSDDAAVYYCARLRLQGEVVVPPSQSNWFDPWGQGTLVTVSS
VL: EIVLTQSPATLSLYPGERATLSCRASQSVSRFLAWYQQKPGQAPRLLIYDASNRATGIPARFSGSGSGTDFTLTISSLEPEDFAVYYCQQRYNWLKITFGQGTRLEIKG
For orientation: Kd means a measure of binding affinity in units of concentration. A word on the koff: it is a measure of how fast the partners let go of each other. Usually kon stands for the second-order rate constant of association. Regarding B1, the Kd is 0.06 nM, the koff was 1e-06 s⁻¹ and the kon came to 17000 M⁻¹ s⁻¹.

B2: AT10_004 mutant B (antibody, V domains shown)
VH: QVQLVQSGAEVRKPGASVKVSCKASGYTFTRHGISWVRQAPGQGLEWMGWISAYTGDTDYAQKFQGRVTMTTDTSTNTAYMELRSLRSDDAAVYYCARLRLQGEVVVPPSQSNWFDPWGQGTLVTVSS
VL: EIVLTQSPATLSLYPGERATLSCRASQSVSRYLAWYQQKPGQAPRLLIYDASNRATGIPARFSGSGSGTDFTLTISSLEPEDFAVYYCQQRYNWLKITFGQGTRLEIKG
In the case of B2, the Kd is 0.05 nM, the koff worked out at 1e-06 s⁻¹ and the association rate constant (kon) amounted to 19000 M⁻¹ s⁻¹.
